From patent publication US20220010021A1 (Sanofi, published 2022)

B1: Ab0329 (antibody, IgG4, V domains shown)
VH: QVTLKESGPVLVKPTETLTLTCTVSGFSLNNARVGVSWIRQPPGKALEWLAHIFSNDEKSYSTSLKSRLTISKDTSKSQVVLTMTNMDPVDTATYYCARSVVTGGYYYEGMDVWGQGTTVTVSS
VL: SYVLTQPPSVSVAPGQTARITCGGSNIGSESVHWYQQKPGQAPVLVVYYSSDRPSGIPERFSGSNSGNTATLTISRVEAGDEADYYCQVWAGSSDHVVFGGGTKLTVLG
B2: Ab0331 (antibody, human IgG4 S228P, lambda)
heavy: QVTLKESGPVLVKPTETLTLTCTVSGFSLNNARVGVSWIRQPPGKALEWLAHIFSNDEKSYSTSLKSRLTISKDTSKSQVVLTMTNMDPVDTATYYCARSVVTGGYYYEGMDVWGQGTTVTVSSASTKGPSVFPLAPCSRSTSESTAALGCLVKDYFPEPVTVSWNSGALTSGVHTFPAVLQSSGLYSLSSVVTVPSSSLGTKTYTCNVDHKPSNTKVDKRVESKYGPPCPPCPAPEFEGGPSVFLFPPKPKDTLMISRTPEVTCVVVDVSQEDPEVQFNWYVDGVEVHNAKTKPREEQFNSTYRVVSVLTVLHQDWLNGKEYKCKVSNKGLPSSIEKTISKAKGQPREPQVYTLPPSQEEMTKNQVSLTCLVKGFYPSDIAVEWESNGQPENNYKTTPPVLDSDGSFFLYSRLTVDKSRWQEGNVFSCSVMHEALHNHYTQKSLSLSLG
light: SYVLTQPPSVSVAPGQTARITCGGSNIGSESVHWYQQKPGQAPVLVVYSESDRPSGIPERFSGSNSGNTATLTISRVEAGDEADYYCQVWEGESDHVVFGGGTKLTVLGQPKANPTVTLFPPSSEELQANKATLVCLISDFYPGAVTVAWKADGSPVKAGVETTKPSKQSNNKYAASSYLSLTPEQWKSHRSYSCQVTHEGSTVEKTVAPTECS
B3: Ab0335 (antibody, human IgG4 S228P, lambda)
heavy: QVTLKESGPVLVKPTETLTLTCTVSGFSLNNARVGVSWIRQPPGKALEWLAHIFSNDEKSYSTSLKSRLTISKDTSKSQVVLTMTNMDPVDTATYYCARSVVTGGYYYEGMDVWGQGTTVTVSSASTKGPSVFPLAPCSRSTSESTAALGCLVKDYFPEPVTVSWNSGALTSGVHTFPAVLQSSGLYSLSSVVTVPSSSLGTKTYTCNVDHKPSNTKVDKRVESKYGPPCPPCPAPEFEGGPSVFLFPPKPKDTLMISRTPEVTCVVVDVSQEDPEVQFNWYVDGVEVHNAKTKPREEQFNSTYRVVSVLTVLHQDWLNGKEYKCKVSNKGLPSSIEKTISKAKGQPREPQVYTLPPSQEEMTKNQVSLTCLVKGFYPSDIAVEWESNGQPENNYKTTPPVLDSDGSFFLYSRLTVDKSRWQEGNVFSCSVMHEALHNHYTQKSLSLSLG
light: SYVLTQPPSVSVAPGQTARITCGGSNIGSESVHWYQQKPGQAPVLVVYSASDRPSGIPERFSGSNSGNTATLTISRVEAGDEADYYCQVWEGESDHVVFGGGTKLTVLGQPKANPTVTLFPPSSEELQANKATLVCLISDFYPGAVTVAWKADGSPVKAGVETTKPSKQSNNKYAASSYLSLTPEQWKSHRSYSCQVTHEGSTVEKTVAPTECS
B4: Ab0351 (antibody, human IgG4 S228P, lambda)
heavy: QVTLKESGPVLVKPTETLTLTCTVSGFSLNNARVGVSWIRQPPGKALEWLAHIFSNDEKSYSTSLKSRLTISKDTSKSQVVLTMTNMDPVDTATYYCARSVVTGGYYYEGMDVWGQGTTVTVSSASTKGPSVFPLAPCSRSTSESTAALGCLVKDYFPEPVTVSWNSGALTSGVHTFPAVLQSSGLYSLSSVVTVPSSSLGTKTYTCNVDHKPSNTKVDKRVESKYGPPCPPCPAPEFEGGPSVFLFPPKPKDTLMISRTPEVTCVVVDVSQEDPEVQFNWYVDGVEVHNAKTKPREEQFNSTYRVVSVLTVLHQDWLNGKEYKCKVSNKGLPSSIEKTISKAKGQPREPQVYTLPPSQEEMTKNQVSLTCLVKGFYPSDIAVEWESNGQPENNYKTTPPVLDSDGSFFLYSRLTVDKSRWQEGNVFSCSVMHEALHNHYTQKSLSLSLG
light: SYVLTQPPSVSVAPGQTARITCGGSNIGSESVHWYQQKPGQAPVLVVYEESDRPSGIPERFSGSNSGNTATLTISRVEAGDEADYYCQVWEGESDHVVFGGGTKLTVLGQPKANPTVTLFPPSSEELQANKATLVCLISDFYPGAVTVAWKADGSPVKAGVETTKPSKQSNNKYAASSYLSLTPEQWKSHRSYSCQVTHEGSTVEKTVAPTECS
B5: Ab0334 (antibody, IgG4, V domains shown)
VH: QVTLKESGPVLVKPTETLTLTCTVSGFSLNNARVGVSWIRQPPGKALEWLAHIFSNDEKSYSTSLKSRLTISKDTSKSQVVLTMTNMDPVDTATYYCARSVVTGGYYYEGMDVWGQGTTVTVSS
VL: SYVLTQPPSVSVAPGQTARITCGGSNIGSESVHWYQQKPGQAPVLVVYSASDRPSGIPERFSGSNSGNTATLTISRVEAGDEADYYCQVWAGSSDHVVFGGGTKLTVLG
B6: Ab0336 (antibody, IgG4, V domains shown)
VH: QVTLKESGPVLVKPTETLTLTCTVSGFSLNNARVGVSWIRQPPGKALEWLAHIFSNDEKSYSTSLKSRLTISKDTSKSQVVLTMTNMDPVDTATYYCARSVVTGGYYYEGMDVWGQGTTVTVSS
VL: SYVLTQPPSVSVAPGQTARITCGGSNIGSESVHWYQQKPGQAPVLVVYSHSDRPSGIPERFSGSNSGNTATLTISRVEAGDEADYYCQVWAGSSDHVVFGGGTKLTVLG
B7: Ab0339 (antibody, IgG4, V domains shown)
VH: QVTLKESGPVLVKPTETLTLTCTVSGFSLNNARVGVSWIRQPPGKALEWLAHIFSNDEKSYSTSLKSRLTISKDTSKSQVVLTMTNMDPVDTATYYCARSVVTGGYYYEGMDVWGQGTTVTVSS
VL: SYVLTQPPSVSVAPGQTARITCGGSNIGSESVHWYQQKPGQAPVLVVYAESDRPSGIPERFSGSNSGNTATLTISRVEAGDEADYYCQVWAGSSDHVVFGGGTKLTVLG
B8: Ab0341 (antibody, IgG4, V domains shown)
VH: QVTLKESGPVLVKPTETLTLTCTVSGFSLNNARVGVSWIRQPPGKALEWLAHIFSNDEKSYSTSLKSRLTISKDTSKSQVVLTMTNMDPVDTATYYCARSVVTGGYYYEGMDVWGQGTTVTVSS
VL: SYVLTQPPSVSVAPGQTARITCGGSNIGSESVHWYQQKPGQAPVLVVYAYSDRPSGIPERFSGSNSGNTATLTISRVEAGDEADYYCQVWAGSSDHVVFGGGTKLTVLG

Target: human FGFR1c + KLB receptor complex on HEK293 iLite FGF21 reporter cells (human, UniProt P11362 22-822; Q86Z14 1-1044)
Sequence (P11362 22-822, chain 1 of 2): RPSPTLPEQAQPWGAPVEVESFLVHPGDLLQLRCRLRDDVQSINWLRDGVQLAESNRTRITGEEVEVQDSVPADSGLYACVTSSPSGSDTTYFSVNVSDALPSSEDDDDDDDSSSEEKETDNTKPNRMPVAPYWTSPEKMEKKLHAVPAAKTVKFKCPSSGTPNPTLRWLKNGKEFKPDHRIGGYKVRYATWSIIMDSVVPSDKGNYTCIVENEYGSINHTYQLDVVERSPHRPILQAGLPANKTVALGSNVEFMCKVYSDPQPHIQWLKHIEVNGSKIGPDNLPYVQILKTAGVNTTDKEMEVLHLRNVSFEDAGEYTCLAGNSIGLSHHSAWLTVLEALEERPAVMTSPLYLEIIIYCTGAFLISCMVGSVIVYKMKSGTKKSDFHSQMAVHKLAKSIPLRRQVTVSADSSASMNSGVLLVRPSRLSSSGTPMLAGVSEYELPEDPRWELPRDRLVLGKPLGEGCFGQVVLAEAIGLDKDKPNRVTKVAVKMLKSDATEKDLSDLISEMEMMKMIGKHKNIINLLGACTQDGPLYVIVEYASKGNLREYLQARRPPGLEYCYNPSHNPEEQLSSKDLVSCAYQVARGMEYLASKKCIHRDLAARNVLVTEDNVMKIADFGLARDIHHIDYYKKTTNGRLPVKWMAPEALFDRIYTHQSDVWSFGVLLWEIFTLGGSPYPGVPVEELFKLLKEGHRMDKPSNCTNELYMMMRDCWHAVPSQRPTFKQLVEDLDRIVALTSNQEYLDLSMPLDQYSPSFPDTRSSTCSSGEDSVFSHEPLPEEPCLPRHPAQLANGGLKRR
Sequence (Q86Z14 whole entry, chain 2 of 2): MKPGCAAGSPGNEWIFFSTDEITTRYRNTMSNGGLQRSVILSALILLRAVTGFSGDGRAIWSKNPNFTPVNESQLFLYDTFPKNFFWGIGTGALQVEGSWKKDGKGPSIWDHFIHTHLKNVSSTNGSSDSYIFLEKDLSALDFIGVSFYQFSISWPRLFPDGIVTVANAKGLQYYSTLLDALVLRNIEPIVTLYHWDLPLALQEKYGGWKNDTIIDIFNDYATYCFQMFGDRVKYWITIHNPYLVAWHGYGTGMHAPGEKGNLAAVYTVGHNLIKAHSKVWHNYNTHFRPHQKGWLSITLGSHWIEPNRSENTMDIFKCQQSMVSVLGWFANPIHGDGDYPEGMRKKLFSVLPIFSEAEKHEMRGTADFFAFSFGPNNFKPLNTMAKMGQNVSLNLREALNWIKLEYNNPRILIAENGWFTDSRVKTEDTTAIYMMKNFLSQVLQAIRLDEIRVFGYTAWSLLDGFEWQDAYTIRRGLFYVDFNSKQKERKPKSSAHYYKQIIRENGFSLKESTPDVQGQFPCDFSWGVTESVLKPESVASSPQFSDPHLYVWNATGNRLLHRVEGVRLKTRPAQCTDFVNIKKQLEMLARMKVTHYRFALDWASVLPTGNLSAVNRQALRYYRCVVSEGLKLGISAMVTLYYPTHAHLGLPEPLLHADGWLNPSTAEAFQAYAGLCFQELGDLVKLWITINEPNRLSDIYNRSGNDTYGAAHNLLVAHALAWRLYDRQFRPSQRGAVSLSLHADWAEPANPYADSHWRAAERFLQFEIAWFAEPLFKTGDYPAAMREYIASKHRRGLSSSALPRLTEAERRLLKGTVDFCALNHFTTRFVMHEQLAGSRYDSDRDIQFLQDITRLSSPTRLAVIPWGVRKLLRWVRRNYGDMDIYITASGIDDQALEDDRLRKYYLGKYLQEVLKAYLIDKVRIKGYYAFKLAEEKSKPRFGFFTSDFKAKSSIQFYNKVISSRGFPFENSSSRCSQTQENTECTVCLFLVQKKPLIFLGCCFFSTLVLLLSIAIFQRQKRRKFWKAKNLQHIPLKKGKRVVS
Experiment: cell-based or functional assay

Binder	EC50 [nM]	Emax [%]
B1	4.59	443
B2	0.04	1090
B3	0.04	1220
B4	0.03	1040
B5	1.02	718
B6	2.91	576
B7	2.16	545
B8	1.4	528
